Here are results for 1 substance from paper doi:10.1101/726935.

In the assay the target is EBOV VP35 WT oligomerization domain (Zaire ebolavirus, Yambuku-Mayinga) (UniProt Q05127). Description: SEC-MALS. On the technique in general: Size exclusion chromatography separates by hydrodynamic size, large species first.

The stoichiometry N is a count of units in the complex or per binding partner.

“EBOV VP35 WT oligomerization domain (from UniProt Q05127 75-185) (domain or fragment)”: the stoichiometry N came to 4.
